Measurements taken from US20130345401.

System: T1, human fibrinogen produced in a silkworm (recombinant fibrinogen extracted from cocoons of β42-3×α/γ106-2×IM transgenic silkworms)
T1 sequence 1: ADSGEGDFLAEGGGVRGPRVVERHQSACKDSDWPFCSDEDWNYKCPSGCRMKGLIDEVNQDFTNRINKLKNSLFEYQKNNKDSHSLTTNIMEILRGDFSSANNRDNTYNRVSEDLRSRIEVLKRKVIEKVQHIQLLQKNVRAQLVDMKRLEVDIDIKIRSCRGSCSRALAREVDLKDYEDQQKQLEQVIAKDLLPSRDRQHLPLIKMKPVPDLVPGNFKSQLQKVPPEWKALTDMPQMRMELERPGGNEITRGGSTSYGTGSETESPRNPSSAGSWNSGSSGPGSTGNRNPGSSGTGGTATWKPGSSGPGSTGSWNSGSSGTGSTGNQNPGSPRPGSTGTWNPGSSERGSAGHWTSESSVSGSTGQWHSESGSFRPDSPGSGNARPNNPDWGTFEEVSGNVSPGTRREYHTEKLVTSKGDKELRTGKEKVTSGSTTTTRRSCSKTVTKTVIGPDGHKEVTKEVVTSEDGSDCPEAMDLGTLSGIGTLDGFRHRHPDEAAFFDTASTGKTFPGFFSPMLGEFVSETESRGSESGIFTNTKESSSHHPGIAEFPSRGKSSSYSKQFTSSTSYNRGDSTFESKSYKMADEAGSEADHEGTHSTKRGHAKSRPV
T1 sequence 2: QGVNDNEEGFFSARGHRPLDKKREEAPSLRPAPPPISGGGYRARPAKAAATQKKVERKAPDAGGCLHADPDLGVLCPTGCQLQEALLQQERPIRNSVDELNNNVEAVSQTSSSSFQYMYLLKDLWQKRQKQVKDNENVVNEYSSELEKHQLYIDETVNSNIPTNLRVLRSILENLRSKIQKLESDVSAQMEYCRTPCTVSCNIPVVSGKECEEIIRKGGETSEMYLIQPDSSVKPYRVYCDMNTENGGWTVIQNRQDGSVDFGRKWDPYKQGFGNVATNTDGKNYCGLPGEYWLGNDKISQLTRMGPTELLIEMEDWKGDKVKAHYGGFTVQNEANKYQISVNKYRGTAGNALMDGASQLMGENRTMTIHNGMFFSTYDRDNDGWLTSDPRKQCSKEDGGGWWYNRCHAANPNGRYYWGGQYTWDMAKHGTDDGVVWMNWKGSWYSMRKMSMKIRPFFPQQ
T1 sequence 3: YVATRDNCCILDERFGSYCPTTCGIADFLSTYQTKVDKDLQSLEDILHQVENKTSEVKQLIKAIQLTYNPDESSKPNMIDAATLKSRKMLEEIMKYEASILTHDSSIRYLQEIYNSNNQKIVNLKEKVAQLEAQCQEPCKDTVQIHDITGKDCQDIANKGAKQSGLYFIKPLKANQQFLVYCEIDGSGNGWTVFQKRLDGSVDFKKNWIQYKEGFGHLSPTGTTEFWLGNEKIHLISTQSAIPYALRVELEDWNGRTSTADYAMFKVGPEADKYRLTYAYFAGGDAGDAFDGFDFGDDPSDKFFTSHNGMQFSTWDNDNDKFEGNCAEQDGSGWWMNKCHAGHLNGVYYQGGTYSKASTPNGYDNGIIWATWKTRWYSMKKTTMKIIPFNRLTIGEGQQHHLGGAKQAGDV

**Q.** Which “coagulation (fibrin clot formation): viscosity of the liquid after incubation with 10 U/ml thrombin at 37° C. for 1 hour” value does the source give for thrombin (Calbiochem) here?
**A.** The value was “viscosity of the liquid increased to an extent where, when the liquid was sucked into a pipette, the liquid hardly dropped from the tip of the pipette”.
